Measured values taken from patent US20130071921A1 (Pfizer, published 2013).

Tests used:
[1] = target: T1, Cynomolgous monkey Dkk-1 (cynomolgous monkey); experiment: SPR BIAcore 3000, CM5 chip (Table 8)
[2] = target: T2, Recombinant human Dkk-1 (R&D Systems cat no. 1096-DK/CF), 10xHis tag at the C terminal (human, UniProt O94907 32-266); experiment: SPR BIAcore 3000, CM5 chip (Table 8)
T2 construct: the actual N-terminus of the purified protein is marked in bold italic after residue 30, but the mark is an image lost in the text; also called rhuDkk-1; hDkk-1
T2 sequence: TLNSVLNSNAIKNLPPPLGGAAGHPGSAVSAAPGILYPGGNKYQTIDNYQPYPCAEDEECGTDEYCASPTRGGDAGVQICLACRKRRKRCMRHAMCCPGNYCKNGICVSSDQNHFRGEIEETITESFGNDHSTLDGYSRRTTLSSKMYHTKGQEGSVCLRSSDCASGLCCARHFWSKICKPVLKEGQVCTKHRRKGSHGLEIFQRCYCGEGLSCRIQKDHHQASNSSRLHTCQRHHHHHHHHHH

[3] = target: T3, recombinant rat Dkk-1 (R&D systems Cat No. 4010-DK/CF) (rat); experiment: SPR BIAcore 3000, CM5 chip (Table 8)
T3 construct: Bought

[4] = target: T4, recombinant mouse Dkk-1 (R&D systems Cat No. 1765-DK/CF) (mouse, UniProt O54908 32-272); experiment: SPR BIAcore 3000, CM5 chip (Table 8)
T4 construct: Bought
T4 sequence (looked up): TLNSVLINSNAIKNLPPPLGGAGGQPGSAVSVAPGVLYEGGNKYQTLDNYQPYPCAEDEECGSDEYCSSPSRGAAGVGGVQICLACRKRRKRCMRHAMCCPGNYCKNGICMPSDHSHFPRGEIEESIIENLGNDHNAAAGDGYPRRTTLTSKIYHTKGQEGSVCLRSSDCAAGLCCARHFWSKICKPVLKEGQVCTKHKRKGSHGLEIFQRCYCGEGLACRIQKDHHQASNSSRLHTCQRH

[5] = target: T1, Cynomolgous monkey Dkk-1; experiment: TMDD PK/PD model fit to monkey serum data in vivo; derived as Koff/Kon
[6] = target: T5, recombinant mouse Dkk-4 (R&D systems Cat No. 3105-DK/CF) (mouse, UniProt Q8VEJ3 19-221, limits assumed); experiment: SPR BIAcore, huMabJC18 captured by goat Fab2 anti-human Fc, mDkk-4 titrated from 32.3 nM
T5 construct: Bought; also called mDkk-4
T5 sequence (looked up): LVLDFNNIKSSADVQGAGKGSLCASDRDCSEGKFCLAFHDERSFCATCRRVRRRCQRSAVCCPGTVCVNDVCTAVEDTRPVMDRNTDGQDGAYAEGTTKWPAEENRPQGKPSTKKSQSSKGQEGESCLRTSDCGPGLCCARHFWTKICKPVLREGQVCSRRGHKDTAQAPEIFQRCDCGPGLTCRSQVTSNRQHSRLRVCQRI

[7] = target: T6, recombinant human Dkk3 (R&D systems Cat No. 1118-DK/CF) (human, UniProt Q9UBP4 22-350); experiment: SPR BIAcore, huMabJC18 captured by goat Fab2 anti-human Fc
T6 construct: Bought; also called hDkk-3

[8] = target: T3, recombinant rat Dkk-1 (R&D systems Cat …); experiment: TMDD PK/PD model fit to rat serum data in vivo; derived as Koff/Kon
[9] = target: T7, recombinant mouse Dkk-2 (R&D systems Cat No. 2435-DK/CF) (mouse, UniProt Q9QYZ8 34-259, limits assumed); experiment: SPR BIAcore, huMabJC18 captured by goat Fab2 anti-human Fc, mDkk-2 titrated from 88.8 nM
T7 construct: Bought; also called mDkk-2
T7 sequence (looked up): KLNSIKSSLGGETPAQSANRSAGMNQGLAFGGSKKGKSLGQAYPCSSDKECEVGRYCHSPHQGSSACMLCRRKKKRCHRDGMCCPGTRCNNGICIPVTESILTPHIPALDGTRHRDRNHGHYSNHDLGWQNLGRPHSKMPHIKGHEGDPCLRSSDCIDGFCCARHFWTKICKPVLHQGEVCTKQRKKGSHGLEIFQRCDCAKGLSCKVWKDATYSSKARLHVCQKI

[10] = target: T2, Recombinant human Dkk-1 (R&D Systems …); experiment: SPR (Table 4, headed 37C, BIAcore or ProteOn)

T6 sequence (Q9UBP4 22-350 limits assumed): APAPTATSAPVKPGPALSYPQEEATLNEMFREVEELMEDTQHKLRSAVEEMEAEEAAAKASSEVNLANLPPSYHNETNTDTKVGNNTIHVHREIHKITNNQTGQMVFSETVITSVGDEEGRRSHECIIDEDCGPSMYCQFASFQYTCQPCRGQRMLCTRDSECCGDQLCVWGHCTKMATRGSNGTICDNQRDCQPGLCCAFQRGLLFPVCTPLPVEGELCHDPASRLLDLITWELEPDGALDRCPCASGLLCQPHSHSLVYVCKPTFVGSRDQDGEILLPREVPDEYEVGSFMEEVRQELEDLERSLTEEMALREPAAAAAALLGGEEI

T1/2 [1]: > 5 h | koff [1]: < 6e-05 s⁻¹ | Kd [2]: < 0.002 nM | T1/2 [2]: > 96.3 h | koff [2]: < 2e-06 s⁻¹ | kon [2]: > 1.3e+06 M⁻¹ s⁻¹ | Kd [3]: < 0.1 nM | T1/2 [3]: 0.92 h | koff [3]: 0.00021 s⁻¹ | kon [3]: > 1.3e+06 M⁻¹ s⁻¹ | Kd [4]: < 0.03 nM | T1/2 [4]: > 4.94 h | koff [4]: < 3.9e-05 s⁻¹ | kon [4]: > 1.3e+06 M⁻¹ s⁻¹ | Kd [5]: 0.0513 nM | Kd [6]: < 0.03 nM | T1/2 [6]: > 4.94 h | koff [6]: < 3.9e-05 s⁻¹ | kon [6]: > 1.3e+06 M⁻¹ s⁻¹ | binding result [7]: no binding | Kd [8]: 0.0348 nM | Kd [9]: 9 nM | T1/2 [9]: 1.14 h | koff [9]: 0.000169 s⁻¹ | kon [9]: 18000 M⁻¹ s⁻¹ | Kd [10]: < 0.002 nM | koff [10]: < 2e-06 s⁻¹
B1: huMabJC18, fully humanized anti-Dkk-1 monoclonal antibody (antibody, human IgG2, kappa, V domains shown)
VH: EVQLVESGGGLVQPGGSLRLSCAASGFTFSSYAISWVRQAPGKGLEWVASVSGTGLGFQTYYPDSVKGRFTISRDNAKNSLYLQMNSLRAEDTAVYYCATSLENYAFDYWGQGTTVTVSS
VL: EIVLTQSPATLSLSPGERATLSCRASESVDDFGISFINWYQQKPGQAPRLLIYAGSKQGSGIPARFSGSGSGTDFTLTISSLEPEDFAVYYCQQLKEVPPTFGGGTKVEIKR
notes: IgG2(delta a: A329S, P330S), kappa; also called huMabJC18 IgG
